Test results reported in patent EP4741426A1.

Target: CD215 (IL-15Rα), CD122 (IL-15Rβ), and CD132 (IL-15Rγ) proteins expressed together on the HEK Blue cell line
Assay: cell-based or functional assay

## Wild-type IL-2 (from UniProt P60568 21-153) (ligand)
  EC50 (nM), SEAP reporter at 620 nm, HEK Blue cell line: 0.007 nM
